In PMC12719649:

Assays:
[1] = target: MED14-NTD+H+M+MED26, 16-subunit recombinant human core Mediator with f:MED14-NTD (1-760) (human) (UniProt O60244); assay: co-IP; competition: MED14-NTD+H+M+MED26 on anti-MED30 beads with Pol II and recombinant RPB1 as competitor, equal amounts of His:RPB1 or up to 10-fold more f:RPB1 or f:ΔCTD RPB1 than Pol II; western blot
[2] = target: MED14-NTD+H+M+MED26, 16-subunit recombinant human core Mediator with f:MED14-NTD (1-760) (human) (UniProt O60244)

percent reversal of the MED14-NTD+H+M+MED26-Pol II interaction at a 1:1 ratio [1] [%]	basal in vitro transcription from AdML core promoter templates in Mediator-depleted HeLa NE, 50 nM complex, against Mediator-deficient controls [2] [fold]	Substance
< 50		recombinant His:RPB1 (from UniProt P24928 1-1970) (natural protein)
	> 15	RNA polymerase II (Pol II), Gdown1-free, purified from HeLa nuclear extract (from UniProt P24928 1-1970; P30876 1-1174; P19387 1-275; O15514 1-142; P19388 1-210; P61218 1-127; P62487 1-172; P52434 1-150; P36954 1-125; P62875 1-67; P52435 1-117; P53803 1-58) (complex)
